Test results taken from patent publication US20200123254A1 (LENTIGEN TECHNOLOGY, published 2020).

T1: CD19-Fc peptide (R&D, Minneapolis, Minn.) (UniProt P15391 20-291)
T1 construct: Bought reagent; also called recombinant CD19-Fc peptide; not shown: Fc part; bought reagent, detected with anti-human Fc F(ab')2-AF647
T1 sequence (looked up): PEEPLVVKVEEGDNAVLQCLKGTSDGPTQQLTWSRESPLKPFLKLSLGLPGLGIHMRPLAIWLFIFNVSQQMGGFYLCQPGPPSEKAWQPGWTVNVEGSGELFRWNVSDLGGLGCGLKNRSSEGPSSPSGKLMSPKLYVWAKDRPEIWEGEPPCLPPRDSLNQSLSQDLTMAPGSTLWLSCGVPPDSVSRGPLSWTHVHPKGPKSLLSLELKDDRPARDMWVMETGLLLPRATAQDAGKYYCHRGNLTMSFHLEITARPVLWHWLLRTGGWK

T2: recombinant human CD19 (labeled CD19) (human, UniProt P15391 20-291, limits assumed, fluorescent label, kind and site not stated)
T2 construct: The antigen titrated on yeast is only called 'labeled CD19'; also called fluorescently tagged antigen
T2 sequence (looked up): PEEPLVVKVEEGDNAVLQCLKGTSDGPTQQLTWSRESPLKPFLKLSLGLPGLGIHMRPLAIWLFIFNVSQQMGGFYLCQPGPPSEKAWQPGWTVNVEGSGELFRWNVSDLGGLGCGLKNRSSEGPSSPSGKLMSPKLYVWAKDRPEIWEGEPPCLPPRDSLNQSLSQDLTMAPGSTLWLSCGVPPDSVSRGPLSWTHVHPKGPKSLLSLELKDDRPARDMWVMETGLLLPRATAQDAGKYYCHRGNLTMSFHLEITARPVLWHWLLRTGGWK


target: T1, CD19-Fc peptide (R&D, Minneapolis, …); test: flow cytometry of CAR-transduced primary human T cells stained with CD19-Fc then anti Fc-AF647; untransduced T cells set as 0%
Experimental: FIG. 3 depicts anti-CD19 CAR surface expression in primary human T cells. CAR T cells redirected to CD19 tumor antigen via the use of ScFv domains (as listed in each panel) were generated by lentiviral transduction with CAR expression constructs. CART detection was performed by flow cytometry. T cells were washed twice in cold PBS-EDTA buffer and stained with CD19-Fc peptide followed by anti Fc-AF647 reagent. At least 20,000 cells were acquired for each analysis. Cells were gated based on forward scatter and side scatter, singlet discrimination, and 7AAD negativity so that only viable cells were analyzed. Data were acquired on MACSQuant 10 flow cytometer in the APC channel. UTD, un-transduced negative control cells. The marker in each panel identifies the CAR-expressing population, and are listed as percent of total transduced T cells analyzed.
For cell staining, half a million CAR T transduced cells were harvested from culture, washed two times in cold AutoMACS buffer supplemented with 0.5% bovine serum albumin (Miltenyi Biotec), and CAR surface expression detected by staining with CD19-Fc peptide (R&D, Minneapolis, Minn.) followed by anti Fc-AF647 conjugate (Jackson ImmunoResearch, West Grove, Pa.). Non-transduced cells were used as negative controls. Dead cells in all studies were excluded by 7AAD staining (BD Biosciences, San Jose, Calif.). Cells were washed twice and resuspended in 200 ul Staining Buffer before quantitative analysis by flow cytometry. Flow cytometric analysis was performed on a MACSQuant®10 Analyzer (Miltenyi Biotec), and data plots were generated using FlowJo software (Ashland, Oreg.).
T cells were activated on culture Day 0 with TransAct T cell reagent (active engagement of CD3 and CD28 antigens, Miltenyi Biotec, Inc.) in the presence of IL-2 as described in Materials and Methods. On culture Day 8-10, expression of anti-CD19 CARs on T cell surface was detected by CD19-Fc peptide followed by anti Fc-AF647 and analyzed by flow cytometry.

| CAR expression level (percent of transduced T cells stained by CD19-Fc) [%] | Binder |
| --- | --- |
| 46 | LTG2050 (LP-M19217-CD8 TM-41BB-CD3 zeta) CAR (other, Chimeric antigen receptor on the surface of transduced primary human T cells; also called ScFv1-CD8 TM-41BB-CD3 zeta) EVQLVQSGAEVKKPGASVKVSCKASGYTFTSYYMHWVRQAPGQGLEWMGIINPSGGSTSYAQKFQGRVTMTRDTSTSTVYMELSSLRSEDTAVYYCARSDRGITATDAFDIWGQGTMVTVSSGGGGSGGGGSGGGGSQSVLTQPPSVSVAPGQTAKITCGGSDIGNKNVHWYQQKPGQAPVLVVYDDYDRPSGIPERFSGSNSGDAATLTISTVEVGDEADYFCQVWDSSGDPYWVFGGGTQLTVLGAAATTTPAPRPPTPAPTIASQPLSLRPEACRPAAGGAVHTRGLDFACDIYIWAPLAGTCGVLLLSLVITLYCKRGRKKLLYIFKQPFMRPVQTTQEEDGCSCRFPEEEEGGCELRVKFSRSADAPAYQQGQNQLYNELNLGRREEYDVLDKRRGRDPEMGGKPRRKNPQEGLYNELQKDKMAEAYSEIGMKGERRRGKGHDGLYQGLSTATKDTYDALHMQALPPR |
| 64 | LTG2065 (LP-M19217-1-CD8 TM-41BB-CD3 zeta) CAR (other, Chimeric antigen receptor on the surface of transduced primary human T cells; also called ScFv2-CD8TM-4-1BB-CD3 zeta) EVQLVQSGAEVKKPGASVKVSCKASGYTFTSYYMHWVRQAPGQGLEWMGLINPSGGSTSYAQKFQGRVTMTRDTSTSTVYMELSSLRSEDTAVYYCARSDRGITATDAFDIWGQGTMVTVSSGGGGSGGGGSGGGGSQSVLTQPPSVSVAPGRMAKITCGGSDIGNKNVHWYQQKPGQAPVLVVYDDYDRPSGIPERFSGSNSGDAATLTISTVEVGDEADYFCQVWDGSGDPYWMFGGGTQLTVLGAAATTTPAPRPPTPAPTIASQPLSLRPEACRPAAGGAVHTRGLDFACDIYIWAPLAGTCGVLLLSLVITLYCKRGRKKLLYIFKQPFMRPVQTTQEEDGCSCRFPEEEEGGCELRVKFSRSADAPAYQQGQNQLYNELNLGRREEYDVLDKRRGRDPEMGGKPRRKNPQEGLYNELQKDKMAEAYSEIGMKGERRRGKGHDGLYQGLSTATKDTYDALHMQALPPR |
| 21 | LTG2066 (LP-M19217-2-CD8 TM-41BB-CD3 zeta) CAR (other, Chimeric antigen receptor on the surface of transduced primary human T cells; also called ScFv3-CD8TM-4-1BB-CD3 zeta) EVQLVQSGAEVKKPGASVKVSCKASGYTFTSYYMHWVRQAPGQGFEWMGLINPSGSSTSYAQKFQGRVTMTRDTSTSTVYMELSNLRSEDTAVYYCARSDRGITATDAFDIWGQGTMVTVSSGGGGSGGGGSGGGGSQSVLTQPPSVPVAPGQTAKIICGGSDIGNKNVHWYQQKPGQAPVLVVYDDYDRPSGIPERFSGSNSGDAATLTISTVEVGDEADYFCQVWDGSGDPYWVFGGGTQLTVLGAAATTTPAPRPPTPAPTIASQPLSLRPEACRPAAGGAVHTRGLDFACDIYIWAPLAGTCGVLLLSLVITLYCKRGRKKLLYIFKQPFMRPVQTTQEEDGCSCRFPEEEEGGCELRVKFSRSADAPAYQQGQNQLYNELNLGRREEYDVLDKRRGRDPEMGGKPRRKNPQEGLYNELQKDKMAEAYSEIGMKGERRRGKGHDGLYQGLSTATKDTYDALHMQALPPR |
| 81 | LTG2067 (LP-M19217-7-CD8 TM-41BB-CD3 zeta) CAR (other, Chimeric antigen receptor on the surface of transduced primary human T cells; also called ScFv4-CD8TM-4-1BB-CD3 zeta) EVQLVQSGAEVNKPGASVKVSCKASGYTFTSYYMHWVRQAPGQGLEWMGMINPSGGSTSYAQKFQGRVTMTRDTSTSTVYMELSSLRSEDTAVYYCARSDRGITSTDAFDIWGQGTMVTVSSGGGGSGGGGSGGGGSQSVLTQPPSVSLAPGQTAKITCGGSDIGNKNVHWYQQKPGQAPVLVVYDDYNRPSGIPERFSGSNSGDSATLTISTVEVGDEADYFCQVWDGSGDPYWVFGGGTQLTVLGAAATTTPAPRPPTPAPTIASQPLSLRPEACRPAAGGAVHTRGLDFACDIYIWAPLAGTCGVLLLSLVITLYCKRGRKKLLYIFKQPFMRPVQTTQEEDGCSCRFPEEEEGGCELRVKFSRSADAPAYQQGQNQLYNELNLGRREEYDVLDKRRGRDPEMGGKPRRKNPQEGLYNELQKDKMAEAYSEIGMKGERRRGKGHDGLYQGLSTATKDTYDALHMQALPPR |

target: T2, recombinant human CD19 (labeled CD19); test: flow cytometry of yeast-displayed scFv titrated with decreasing amounts of labeled CD19
Experimental: To increase the affinity of m19217, a yeast-display m19217 mutant scFv library was created by using error-prone PCR to create random point mutations in scFv gene sequences. After electroporation, the resulting mutant library was then grown overnight at 30° C. for 16 hours in SDCAA medium and then switched into SGCAA medium at 30° C. for another 16 hours. The mutant library was then sorted through MACS (immunomagentic column, Miltenyi Biotec) with CD19-Fc as the capture antigen to downsize the library and to increase the population of mutants that could bind to CD19-Fc. The strongest binders were then selected by double staining the pools with Anti-c-Myc-Alexa 488 and CD19-Fc/Anti-Hu-Fc and selecting for the binders that had the highest binding affinities as well as c-Myc expression levels. […] Binidng affinities were estimated by flow cytometry of yeast pools using decreasing amounts of labeled CD19.

| EC50 [µg/mL] | Binder |
| --- | --- |
| 0.5 | human anti-CD19 ScFv binder M19217 (scFv, also called ScFv1; founder clone) scFv: EVQLVQSGAEVKKPGASVKVSCKASGYTFTSYYMHWVRQAPGQGLEWMGIINPSGGSTSYAQKFQGRVTMTRDTSTSTVYMELSSLRSEDTAVYYCARSDRGITATDAFDIWGQGTMVTVSSGGGGSGGGGSGGGGSQSVLTQPPSVSVAPGQTAKITCGGSDIGNKNVHWYQQKPGQAPVLVVYDDYDRPSGIPERFSGSNSGDAATLTISTVEVGDEADYFCQVWDSSGDPYWVFGGGTQLTVLG |
| < 0.01 | human anti-CD19 ScFv binder M19217-2 (scFv, also called ScFv3) scFv: EVQLVQSGAEVKKPGASVKVSCKASGYTFTSYYMHWVRQAPGQGFEWMGLINPSGSSTSYAQKFQGRVTMTRDTSTSTVYMELSNLRSEDTAVYYCARSDRGITATDAFDIWGQGTMVTVSSGGGGSGGGGSGGGGSQSVLTQPPSVPVAPGQTAKIICGGSDIGNKNVHWYQQKPGQAPVLVVYDDYDRPSGIPERFSGSNSGDAATLTISTVEVGDEADYFCQVWDGSGDPYWVFGGGTQLTVLG |
| < 0.01 | human anti-CD19 ScFv binder M19217-29 (scFv, also called ScFv6) scFv: EVQLVQSGAEVKKPGASVKVSCKASGYTFTSYYMHWVRQAPGQGLEWMGMINPSGGSTSYAQKFQGRVTMTRDTSTSTVYMELSSLRSEDTAVYYCARSDRGITATDAFDIWGQGTMVTVSSGGGGSGGGGSGGGGSQSVLTQPPSVSVAPGQTAKITCGGSDIGNKNAHWYQQKPGQAPVLVVYDDYDRPSGISERFSGSNSGDAATLTISTVEVGDEADYFCQVWDGSGDPFWVFGGGTQLTVLG |
| < 0.01 | human anti-CD19 ScFv binder M19217-23 (scFv, also called ScFv5) scFv: EVQLVQSGAEVKKPGASVKVSCKASGYTFTGYYMHWVRQAPGQGLEWIGLINPSGGSTSYEQKFQGRVAMTRDTSTSTVYMELSSLRSEDTAVYYCARSDRGITATDAFDIWGQGTMVTVSSGGGGSGGGGSGGGGSQSVLTQPPSVSVAPGQTAKITCGGSDIGDKNVHWYQQKPGQAPVLVVYDDYDRPSGIPERFSGSNSGDAATLTISTVEVGDEADYFCQVWDGIGDPYWVFGGGTQLTVLG |
| < 0.01 | human anti-CD19 ScFv binder M19217-7 (scFv, also called ScFv4) scFv: EVQLVQSGAEVNKPGASVKVSCKASGYTFTSYYMHWVRQAPGQGLEWMGMINPSGGSTSYAQKFQGRVTMTRDTSTSTVYMELSSLRSEDTAVYYCARSDRGITSTDAFDIWGQGTMVTVSSGGGGSGGGGSGGGGSQSVLTQPPSVSLAPGQTAKITCGGSDIGNKNVHWYQQKPGQAPVLVVYDDYNRPSGIPERFSGSNSGDSATLTISTVEVGDEADYFCQVWDGSGDPYWVFGGGTQLTVLG |
| < 0.01 | human anti-CD19 ScFv binder M19217-38 (scFv, also called ScFv7) scFv: EVQLVQSGAEVKRPGASVKVSCKASGYTFTSYYMHWVRQAPGRGLEWMGLINPSGGSTSYAQEFQGRVTMTRDMSTSTVYMELSSLRSEDTAVYYCARSDRGISATDAFDIWGQGTMVTVSSGGGGSGGGGSGGGGSQSVLTQPPSVSVAPGQMAKITCGGSDIGNKNVHWYQQKPGQAPVLVVYDDYNRPSGIPERFSGSNSGDAATLTISTVEVGDEADYFCQVWDGSGDPYWVFGGGTQLTDLG |
| < 0.01 | human anti-CD19 ScFv binder M19217-40 (scFv, also called ScFv8) scFv: EVQLVQSGAEVKRPGASVKVSCKASGYTFTSYYMHWVRQAPGQGLVWMGLINPSGGSTSYAQKFQGRVTMTRDTSTSTVYMELSSLRSEDTAVYYCARSDRGITATDAFDIWGQGTMVTVSSGGGGSGGGGSGGGGSQSVLTQPPSVSVAPGQTAKTTCGGSDIGNKNVHWYQQKPGQAPVLVVYDDYDRPSGIPERFSGSNSGDAATLTISTVEVGDEADYVCQVWDGSGDPYWVFGGGTQLTVLG |
| < 0.01 | human anti-CD19 ScFv binder M19217-1 (scFv, also called ScFv2) scFv: EVQLVQSGAEVKKPGASVKVSCKASGYTFTSYYMHWVRQAPGQGLEWMGLINPSGGSTSYAQKFQGRVTMTRDTSTSTVYMELSSLRSEDTAVYYCARSDRGITATDAFDIWGQGTMVTVSSGGGGSGGGGSGGGGSQSVLTQPPSVSVAPGRMAKITCGGSDIGNKNVHWYQQKPGQAPVLVVYDDYDRPSGIPERFSGSNSGDAATLTISTVEVGDEADYFCQVWDGSGDPYWMFGGGTQLTVLG |
